Experimental data published in patent publication US20100003264A1, “Reduction of Ophthalmalogic Neovascularization” (WASHINGTON UNIVERSITY, priority 2005, published 2010).
“Also recorded” adds a separate entry of the source.

System: choroidal neovascularization
Assay: laser-induced choroidal neovascularization in mice, volume of the neovascular complex
Assay type: in vivo
Conditions: IL-10 knockout mice, IL-10 intravitreally on day of laser or three days after laser
Procedure: Volume of the neovascular complex was examined in IL-10 knockout mice. Knockout mice were purchased commercially (NCI, Frederick, Md.). All work was carried out per the ARVO guidelines for animal use in research. Rupture of Bruch's membrane with laser was used to initiate chorioretinal neovascularization in 5-7 week old mice as described in Nambu et al. ((2003) Invest Ophthalmol Vis Sci 44: 3650). Seven days after laser, the mice were anesthetized and perfused intraventricularly with fluorescein-labeled dextran. The mice were euthanized with CO2 inhalation and the eyes harvested for tissue processing. A dissecting microscope was used to remove the cornea and lens and gently separate the retina from the underlying choroid and sclera. Microscissors were used to make four radial incisions in the sclerochoroidal ‘eyecup’ in order to prepare choroidal flat mounts on glass slides. The tissues were incubated in 4% paraformaldehyde for 45 minutes and washed three times with 3% bovine serum albumin. […] The choroidal flat mounts were analyzed for presence of CNV by confocal microscopy. Extent of choroidal neovascularization was quantified by Metamorph™ imaging software. […]
Macrophages were used to proactively treat the formation of blood vessels in the eye. […] Choroidal neovascularization was analyzed on day 7. […]

B1: IL-10: cytokine produced by activated macrophages and some helper T cells; injected exogenously into eyes of IL-10 knockout mice (protein, UniProt P18893 19-178, looked up)
Interleukin-10: SRGQYSREDNNCTHFPVGQSHMLLELRTAFSQVKTFFQTKDQLDNILLTDSLMQDFKGYLGCQALSEMIQFYLVEVMPQAEKHGPEIKEHLNSLGEKLKTLRMRLRRCHRFLPCENKSKAVEQVKSDFNKLQDQGVYKAMNEFDIFINCIEAYMMIKMKS
- choroidal neovascularization (volume of the neovascular complex): reversed the inhibition choroidal neovascularization; also recorded: increased new vessel formation
- choroidal neovascularization (volume of the neovascular complex) (listed as Exogenous IL-10): reversed the inhibition choroidal neovascularization
